# From patent US20250388640A1 (SYNTHEKINE, published 2025)
# Substitutions are numbered along the chain they refer to. Numbers in names are those of the source.
# B1: human IL12 mutein, hIL-12p40 E81S, F82A with hIL-12p35-8X His (ligand)
# chain 1: IWELKKDVYVVELDWYPDAPGEMVVLTCDTPEEDGITWTLDQSSEVLGSGKTLTIQVKSAGDAGQYTCHKGGEVLSHSLLLLHKKEDGIWSTDILKDQKEPKNKTFLRCEAKNYSGRFTCWWLTTISTDLTFSVKSSRGSSDPQGVTCGAATLSAERVRGDNKEYEYSVECQEDSACPAAEESLPIEVMVDAVHKLKYENYTSSFFIRDIIKPDPPKNLQLKPLKNSRQVEVSWEYPDTWSTPHSYFSLTFCVQVQGKSKREKKDRVFTDKTSATVICRKNASISVRAQDRYYSSSWSEWASVPCS
# chain 2: RNLPVATPDPGMFPCLHHSQNLLRAVSNMLQKARQTLEFYPCTSEEIDHEDITKDKTSTVEACLPLELTKNESCLNSRETSFITNGSCLASRKTSFMMALCLSSIYEDLKMYQVEFKTMNAKLLMDPKRQIFLDQNMLAVIDELMQALNFNSETVPQKSSLEEPDFYKTKIKLCILLHAFRIRAVTIDRVMSYLNASGSHHHHHHHH
# B2: human IL12 mutein, hIL-12p40 E81V, F82A with hIL-12p35-8X His (ligand)
# chain 1: B1 chain 1 with S59V
# chain 2: B1 chain 2
# B3: human IL12 mutein, hIL-12p40 E81R, F82A with hIL-12p35-8X His (ligand)
# chain 1: B1 chain 1 with S59R
# chain 2: B1 chain 2
# B4: human IL12 mutein, hIL-12p40 E81I, F82A with hIL-12p35-8X His (ligand)
# chain 1: B1 chain 1 with S59I
# chain 2: B1 chain 2
# B5: human IL12 mutein, hIL-12p40 E81N, F82A with hIL-12p35-8X His (ligand)
# chain 1: B1 chain 1 with S59N
# chain 2: B1 chain 2
# B6: human IL12 mutein, hIL-12p40 E81K, F82A with hIL-12p35-8X His (ligand)
# chain 1: B1 chain 1 with S59K
# chain 2: B1 chain 2
# B7: human IL12 mutein, hIL-12p40 E81G, F82A with hIL-12p35-8X His (ligand)
# chain 1: B1 chain 1 with S59G
# chain 2: B1 chain 2
# B8: human IL12 mutein, hIL-12p40 E81L, F82A with hIL-12p35-8X His (ligand)
# chain 1: B1 chain 1 with S59L
# chain 2: B1 chain 2
# B9: human IL12 mutein, hIL-12p40 E81A, F82L with hIL-12p35-8X His (ligand)
# chain 1: B1 chain 1 with S59A, A60L
# chain 2: B1 chain 2
# B10: human IL12 mutein, hIL-12p40 E81A, F82I with hIL-12p35-8X His (ligand)
# chain 1: B1 chain 1 with S59A, A60I
# chain 2: B1 chain 2
# B11: human IL12 mutein, hIL-12p40 E81A, F82P with hIL-12p35-8X His (ligand)
# chain 1: B1 chain 1 with S59A, A60P
# chain 2: B1 chain 2
# B12: human IL12 mutein, hIL-12p40 E81A, F82H with hIL-12p35-8X His (ligand)
# chain 1: B1 chain 1 with S59A, A60H
# chain 2: B1 chain 2
# B13: human IL12 mutein, hIL-12p40 E81A, F82G with hIL-12p35-8X His (ligand)
# chain 1: B1 chain 1 with S59A, A60G
# chain 2: B1 chain 2
# B14: human IL12 mutein, hIL-12p40 E81A, F82Q with hIL-12p35-8X His (ligand)
# chain 1: B1 chain 1 with S59A, A60Q
# chain 2: B1 chain 2
# B15: human IL12 mutein, hIL-12p40 E81A, F82M with hIL-12p35-8X His (ligand)
# chain 1: B1 chain 1 with S59A, A60M
# chain 2: B1 chain 2
# B16: human IL12 mutein, hIL-12p40 E81A, F82C with hIL-12p35-8X His (ligand)
# chain 1: B1 chain 1 with S59A, A60C
# chain 2: B1 chain 2
# B17: human IL12 wild type (hIL-12p40 wild type with hIL-12p35-8X His) (ligand)
# chain 1: B1 chain 1 with S59E, A60F
# chain 2: B1 chain 2
# B18: human IL12 mutein, hIL-12p40 E81A, F82F with hIL-12p35-8X His (ligand)
# chain 1: B1 chain 1 with S59A, A60F
# chain 2: B1 chain 2
# Target: T1, hIL-12 receptor signaling complex (hIL-12Rβ1 and hIL-12Rβ2) (human, UniProt P42701 24-662; Q99665 24-862)
# Test: cell-based or functional assay
# T1 sequence (Q99665 24-862, chain 2 of 2, other chains not shown): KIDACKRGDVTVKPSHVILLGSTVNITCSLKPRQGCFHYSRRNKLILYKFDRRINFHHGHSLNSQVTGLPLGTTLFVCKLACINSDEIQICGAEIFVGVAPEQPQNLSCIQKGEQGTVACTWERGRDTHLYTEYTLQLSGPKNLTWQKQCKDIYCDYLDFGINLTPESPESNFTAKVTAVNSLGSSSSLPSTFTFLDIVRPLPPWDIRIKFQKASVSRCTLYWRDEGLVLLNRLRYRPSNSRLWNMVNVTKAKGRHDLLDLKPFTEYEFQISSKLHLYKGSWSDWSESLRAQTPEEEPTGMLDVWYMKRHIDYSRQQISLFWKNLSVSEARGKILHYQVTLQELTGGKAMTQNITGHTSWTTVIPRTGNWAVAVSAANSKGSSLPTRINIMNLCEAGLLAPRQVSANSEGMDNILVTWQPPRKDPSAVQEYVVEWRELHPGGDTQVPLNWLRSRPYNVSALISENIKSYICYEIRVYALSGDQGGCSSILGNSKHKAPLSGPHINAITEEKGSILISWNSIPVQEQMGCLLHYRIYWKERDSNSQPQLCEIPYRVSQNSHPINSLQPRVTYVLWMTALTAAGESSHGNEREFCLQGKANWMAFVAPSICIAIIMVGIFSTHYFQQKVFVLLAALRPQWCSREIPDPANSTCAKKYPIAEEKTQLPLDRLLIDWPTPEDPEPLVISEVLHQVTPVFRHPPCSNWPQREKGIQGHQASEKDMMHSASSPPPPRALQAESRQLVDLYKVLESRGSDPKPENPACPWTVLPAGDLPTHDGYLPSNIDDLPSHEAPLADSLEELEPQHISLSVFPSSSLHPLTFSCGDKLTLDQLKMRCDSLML
Binder,"IFNy [gMFI] EC50, CD8+ T Cells","IFNy [gMFI] EC50, CD56hi NK Cells","IFNy [gMFI] Emax, CD8+ T Cells","IFNy [gMFI] Emax, CD56hi NK Cells"
B1,0.21 nM,0.73 nM,11300 gMFI,206000 gMFI
B2,0.38 nM,0.5 nM,10600 gMFI,194000 gMFI
B3,0.35 nM,0.75 nM,16300 gMFI,156000 gMFI
B4,0.55 nM,1.48 nM,11700 gMFI,313000 gMFI
B5,0.43 nM,0.6 nM,11400 gMFI,165000 gMFI
B6,0.51 nM,0.62 nM,13200 gMFI,123000 gMFI
B7,0.14 nM,0.29 nM,10700 gMFI,181000 gMFI
B8,0.39 nM,0.47 nM,11500 gMFI,223000 gMFI

# Target: T1, hIL-12 receptor signaling complex …
# Test: cell-based or functional assay
# Remark: another data set of the same source
Binder,"IFNy [%+] EC50, CD8+ T Cells","IFNy [%+] EC50, CD56hi NK Cells","IFNy [%+] Emax, CD8+ T Cells","IFNy [%+] Emax, CD56hi NK Cells"
B1,0.101 nM,0.014 nM,69 %+,94.9 %+
B2,0.226 nM,0.026 nM,67.4 %+,94.6 %+
B3,0.178 nM,0.036 nM,81.6 %+,94 %+
B4,0.37 nM,0.061 nM,68.3 %+,93.7 %+
B5,0.195 nM,0.022 nM,68.2 %+,92.8 %+
B6,0.305 nM,0.046 nM,78.5 %+,93.7 %+
B7,0.08 nM,0.01 nM,67.4 %+,93.8 %+
B8,0.185 nM,0.003 nM,68 %+,94.8 %+

# Target: T1, hIL-12 receptor signaling complex …
# Test: cell-based or functional assay
# Remark: another data set of the same source
Binder,"pSTAT4 [gMFI] EC50, CD8+ T Cells","pSTAT4 [gMFI] EC50, CD56hi NK Cells","pSTAT4 [gMFI] Emax, CD8+ T Cells","pSTAT4 [gMFI] Emax, CD56hi NK Cells"
B9,3.12 nM,7.21 nM,100000 gMFI,31100 gMFI
B10,5.72 nM,10.4 nM,106000 gMFI,30500 gMFI
B11,2.87 nM,8.04 nM,94000 gMFI,29600 gMFI
B12,4.04 nM,8.57 nM,108000 gMFI,33500 gMFI
B13,4.92 nM,13.5 nM,98200 gMFI,30300 gMFI
B14,4.92 nM,9.87 nM,91400 gMFI,25900 gMFI
B15,2.64 nM,4.26 nM,109000 gMFI,32200 gMFI
B16,12.7 nM,30 nM,87500 gMFI,27000 gMFI
B17,0.03 nM,0.06 nM,121000 gMFI,37700 gMFI
B18,0.2 nM,0.63 nM,107000 gMFI,36600 gMFI

# Target: T1, hIL-12 receptor signaling complex …
# Test: cell-based or functional assay
# Remark: another data set of the same source
Binder,"pSTAT4 [%+] EC50, CD8+ T Cells","pSTAT4 [%+] EC50, CD56hi NK Cells","pSTAT4 [%+] Emax, CD8+ T Cells","pSTAT4 [%+] Emax, CD56hi NK Cells"
B9,0.71 nM,1.08 nM,80.2 %+,89.1 %+
B10,0.67 nM,0.9 nM,79.2 %+,86 %+
B11,0.71 nM,1.15 nM,79.7 %+,87.6 %+
B12,0.55 nM,0.97 nM,79.6 %+,89.7 %+
B13,1 nM,1.7 nM,80.1 %+,88 %+
B14,1.08 nM,2.05 nM,78.5 %+,85.1 %+
B15,0.52 nM,0.74 nM,82.2 %+,88.1 %+
B16,3.4 nM,5.08 nM,79 %+,85.2 %+
B17,0.01 nM,0.01 nM,85 %+,91.4 %+
B18,0.07 nM,0.13 nM,83.3 %+,93.5 %+
